{"source": "paper PMC11685440", "molecular_target": "6xHis-MBP-PmARF1^DBD (Penium margaritaceum AB-class ARF1 DNA-binding domain) (Penium margaritaceum)", "experiment": "SEC-MALS; 6xHis-MBP-PmARF1^DBD at 1 mg/ml in 1x PBS, Superdex 200 Increase 10/300 GL, room temperature", "data": [{"substance": "6xHis-MBP-PmARF1^DBD (Penium margaritaceum AB-class ARF1 DNA-binding domain) (domain or fragment)", "values": [{"measurement": "stoichiometry N", "result": 2}]}]}
